Experimental data taken from publication PMC10294631.

Tested on: CsrA-His6
Experiment: EMSA

Substance: hmsE RNA 104 nt (GGA2 and GGA3)
- Kd: 0.138 µM
